Experimental findings from paper PMC12375107 (Cell Death & Disease, 2025) are described below.

The assay deals with T1, STING protein (SPR) (human, UniProt Q86WV6 1-379).
T1 construct: STING, protein injected as analyte; Probably the recombinant protein from E. coli of the GST pull-down
The assay can be described thus: SPR; Biacore 8K; CAD captured on sensor chip CM5; STING injected at increasing concentrations for 2 min, dissociation 2 min in running buffer; equilibrium constants by the evaluation software. Conditions: both partners purified. Background: SPR reads the build-up and loss of mass on a sensor chip optically.

The Kd is the constant that tells how readily two partners part at equilibrium. A lower Kd goes with a tighter complex.

T1 sequence (Q86WV6 whole entry): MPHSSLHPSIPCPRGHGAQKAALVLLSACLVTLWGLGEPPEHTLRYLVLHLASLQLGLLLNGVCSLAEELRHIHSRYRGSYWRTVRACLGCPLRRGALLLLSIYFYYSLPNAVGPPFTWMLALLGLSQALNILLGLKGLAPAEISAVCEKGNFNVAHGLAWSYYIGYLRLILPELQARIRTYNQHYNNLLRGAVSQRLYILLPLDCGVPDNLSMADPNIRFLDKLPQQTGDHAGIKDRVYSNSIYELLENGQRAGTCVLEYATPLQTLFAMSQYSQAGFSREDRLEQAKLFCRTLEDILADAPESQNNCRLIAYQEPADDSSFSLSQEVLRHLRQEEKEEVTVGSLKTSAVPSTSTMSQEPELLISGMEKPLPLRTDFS

B1: CAD protein (SPR) (enzyme, human, UniProt O76075 1-338, looked up)
chain: MLQKPKSVKLRALRSPRKFGVAGRSCQEVLRKGCLRFQLPERGSRLCLYEDGTELTEDYFPSVPDNAELVLLTLGQAWQGYVSDIRRFLSAFHEPQVGLIQAAQQLLCDEQAPQRQRLLADLLHNVSQNIAAETRAEDPPWFEGLESRFQSKSGYLRYSCESRIRSYLREVSSYPSTVGAEAQEEFLRVLGSMCQRLRSMQYNGSYFDRGAKGGSRLCTPEGWFSCQGPFDMDSCLSRHSINPYSNRESRILFSTWNLDHIIEKKRTIIPTLVEAIKEQDGREVDWEYFYGLLFTSENLKLVHIVCHKKTTHKLNCDPSRIYKPQTRLKRKQPVRKRQ
notes: Probably the recombinant protein from E. coli of the GST pull-down
Regarding B1, the dissociation constant Kd was determined as 993 nM. In other words, the sub-micromolar range.
